Laboratory results from publication PMC13408441, “Molecular regulation and physiological role of GOLPH3-mediated Golgi retention” (Nature Communications, 2026).
“Also recorded” adds a separate entry of the source.

Columns and labels:
[1] = tested on: LCS; assay: ITC of GOLPH3 mutants with LCS peptide; format: binding; conditions: 25 °C, pH 8.0, relative to non-mutated GOLPH3
Procedure: (§1) Supplemental Material for Theodoropoulou, Nasrallah, et al 2026
(§2) Isothermal titration calorimetry
(§3) Isothermal titration calorimetry (ITC) experiments were performed on a MicroCal PEAQ-ITC (Malvern Panalytical), with GOLPH3 variants being in a buffer containing 250 mM NaCl, 50 mM Tris pH 8.0 and 1 mM TCEP. LCS peptides were synthesised and delivered as lyophilised powder (Genscript). The peptides were dissolved in the protein buffer and their concentrations were calculated based upon their absorbance at 280 nm and their corresponding molar extinction coefficient. Experiments consisted of titrations of a single 0.4 µL injection followed […]
(§4) GOLPH3 proteins at a 100 μM concentration. Experiments were performed at 25 °C in triplicate (n = 3), with injection duration of 4 s, injection spacing of 150 s, stir speed of 750 rpm, and reference power of 7 μcal/s. Data were processed and plotted using MicroCal PEAQ‐ITC Analysis Software and fitted to a one‐site binding model.
(§5) Circular Dichroism Spectroscopy
(§6) Circular Dichroism Spectra of GOLPH3 proteins (at 10 μM in 100 mM NaCl, 50 mM Tris pH 7.4 and 1 mM TCEP) were collected with a Chirascan V100 (AppliedPhotophysics), using a 1 mm path length cuvette, at 20 °C, in the 200-260 nm range. Thermal denaturation experiments […]
(§7) every 1 °C, with a temperature ramp speed of 1 °C/min and an equilibration time of […]
(§8) Table S2: Fits of CD spectra to fractions of secondary structure for Golph3 WT and various mutants of it, carried out with the BestSel server

[2] = CD secondary structure of GOLPH3 proteins (BestSel fits); format: physicochemical, human; conditions: 10 μM, 100 mM NaCl, 50 mM Tris pH 7.4, 1 mM TCEP, 20 °C
Procedure: as §1
Isothermal titration calorimetry […]
as §5, §6, §7, §8

[3] = CD thermal denaturation of GOLPH3 proteins; format: physicochemical, human; conditions: CD at 207 nm, 20 to 95 °C at 1 °C/min, 10 μM protein, 100 mM NaCl, 50 mM Tris pH 7.4, 1 mM TCEP
Procedure: as §1, §2, §3, §4, §5, §6, §7, §8

[4] = tested on: HeLa cells; assay: Immunofluorescence of GOLPH3 Golgi localization; format: cell-based, human; conditions: quantitative immunofluorescence
Procedure: as §1
(Sigma, E4382), 5 mL of 1% Phloxine B (Fluka, 28550), 360 mL of 95% ethanol, and 2 mL of glacial acetic acid. Slides were then washed in distilled water, dehydrated, cleared in xylene, and mounted using Eukitt mounting medium (Sigma-Aldrich).
For Alcian Blue staining, sections were deparaffinized, rehydrated, and incubated for 25 minutes at room temperature in 1% Alcian Blue (Sigma-Aldrich, A5268) dissolved in 3% acetic acid (pH 2.5). The solution was filtered prior to use and prepared by dissolving 5 g of Alcian Blue in 500 mL of 3% glacial acetic acid. After staining, slides were washed in running tap water for 5 minutes and briefly rinsed in distilled water. Nuclei were counterstained with 0.1% nuclear fast red (Vector Laboratories, H-3403) for 5 minutes, followed by rinsing, dehydration, clearing, and mounting with Eukitt. Acidic mucopolysaccharides and mucins […]
Immunofluorescence and confocal microscopy
HeLa GOLPH3-KO cells transfected with the different GOLPH3 constructs were plated at approximately 50% confluency post-transfection. Cells were washed with PBS, fixed in 4% paraformaldehyde (PFA) for 20 minutes, washed with PBS, quenched with 50 mM NH4Cl for 10 minutes, and washed again with PBS. Cells were permeabilized with 0.05% saponin in PBS for 5 minutes. Subsequently, cells were washed and blocked with 3% BSA and 0.05% saponin in PBS for 30 minutes. Primary antibodies (anti-GOLPH3 and anti-GM130) and secondary antibodies were diluted in the same buffer. After blocking, coverslips were washed and incubated with primary antibodies overnight at 4 °C, washed in PBS, and incubated for 45 minutes with secondary antibodies. Cells were then washed and stained with Hoechst for nuclear visualization. Finally, coverslips were mounted in Prolong Glass Antifade Mountant.
Images were acquired using a Zeiss LSM 980 Inverted microscope with a 63X objective, a pinhole size of 1 AU and at least 2 line-averaging or alternatively using Oympus Evident FV4000. Super-resolution images were taken using Zeiss LSM980 with Airyscan2 module, with 63×oil-immersion objectives. Images were processed using Fiji (ImageJ). Cis-to-trans Golgi linescans were recorded using the “Color Profiler” plugin (Color_Profiler. jar, https://imagej.nih.gov/ij/plugins/color -profiler.html) in Fiji software.
Forty-eight hours after transfection, cells were harvested by trypsinization, fixed 10 minutes in 4% PFA/PBS, washed, and resuspended in PBS containing 1% BSA.

[5] = tested on: GOLPH3-KO HeLa cells; assay: 3H-palmitate metabolic labeling of GOLPH3 mutants; format: cell-based, human; conditions: 3H-palmitic acid 3 h, autoradiography after immunoprecipitation
Procedure: To detect palmitoylation, HeLa WT or GOLPH3-KO cells were transfected or not with different GOLPH3 constructs, incubated for 3 h in IM (Glasgow minimal essential medium buffered with 10 mM Hepes, pH 7.4) with 200 mCi/ml ^3H palmitic acid (9,10-^3H(N)) (American Radiolabeled Chemicals, Inc.). The cells were washed and directly lysed for immunoprecipitation with the anti-GOLPH3 rabbit antibody. […] After SDS-PAGE, the gel was incubated in a fixative solution (25% isopropanol, 65% H2O, 10% acetic acid), followed by a 30-min incubation with signal enhancer Amplify NAMP100 (GE Healthcare). […] Quantification of radioactive experiments was quantified using specific screens by autoradiography. The images shown for ^3H-palmitate labeling were however obtained using fluorography (indirect detection of radioactive emission by stimulated light emission from a fluorophore (Amplify) on film).

B1: D247A: GOLPH3 mutant D247A; recombinant in biophysics, transfected construct in cells (protein, UniProt Q9H4A6 1-298, looked up, variant D247A)
Golgi phosphoprotein 3: MTSLTQRSSGLVQRRTEASRNAADKERAAGGGAGSSEDDAQSRRDEQDDDDKGDSKETRLTLMEEVLLLGLKDREGYTSFWNDCISSGLRGCMLIELALRGRLQLEACGMRRKSLLTRKVICKSDAPTGDVLLDEALKHVKETQPPETVQNWIELLSGETWNPLKLHYQLRNVRERLAKNLVEKGVLTTEKQNFLLFDMTTHPLTNNNIKQRLIKKVQEAVLDKWVNDPHRMDRRLLALIYLAHASAVLENAFAPLLDEQYDLATKRVRQLLDLDPEVECLKANTNEVLWAVVAAFTK
- binding of GOLPH3 mutants to LCS [1]: reduced binding
- % alpha [2]: 36%
- % beta parallel [2]: 0%
- % beta-antiparallel [2]: 8%
- % others [2]: 44%
- % turn [2]: 12%

B2: D247R/D258R/D262R: recombinant GOLPH3 triple mutant D247R/D258R/D262R (protein, UniProt Q9H4A6 1-298, looked up, variant D247R D258R D262R)
Golgi phosphoprotein 3: MTSLTQRSSGLVQRRTEASRNAADKERAAGGGAGSSEDDAQSRRDEQDDDDKGDSKETRLTLMEEVLLLGLKDREGYTSFWNDCISSGLRGCMLIELALRGRLQLEACGMRRKSLLTRKVICKSDAPTGDVLLDEALKHVKETQPPETVQNWIELLSGETWNPLKLHYQLRNVRERLAKNLVEKGVLTTEKQNFLLFDMTTHPLTNNNIKQRLIKKVQEAVLDKWVNDPHRMDRRLLALIYLAHASRVLENAFAPLLREQYRLATKRVRQLLDLDPEVECLKANTNEVLWAVVAAFTK
- Tm / melting temperature [3]: 57 °C
- binding of GOLPH3 mutants to LCS [1]: weaken or abrogate binding
- % alpha [2]: 38%
- % beta parallel [2]: 0%
- % beta-antiparallel [2]: 7%
- % others [2]: 40%
- % turn [2]: 15%

B3: R90L: GOLPH3 mutant defective in PtdIns(4)P binding (protein, UniProt Q9H4A6 1-298, looked up, variant R90L)
Golgi phosphoprotein 3: MTSLTQRSSGLVQRRTEASRNAADKERAAGGGAGSSEDDAQSRRDEQDDDDKGDSKETRLTLMEEVLLLGLKDREGYTSFWNDCISSGLLGCMLIELALRGRLQLEACGMRRKSLLTRKVICKSDAPTGDVLLDEALKHVKETQPPETVQNWIELLSGETWNPLKLHYQLRNVRERLAKNLVEKGVLTTEKQNFLLFDMTTHPLTNNNIKQRLIKKVQEAVLDKWVNDPHRMDRRLLALIYLAHASDVLENAFAPLLDEQYDLATKRVRQLLDLDPEVECLKANTNEVLWAVVAAFTK
- Golgi localization of GOLPH3 mutants [4]: largely abolished Golgi localization

B4: D247R: recombinant GOLPH3 mutant D247R (protein, UniProt Q9H4A6 1-298, looked up, variant D247R)
Golgi phosphoprotein 3: MTSLTQRSSGLVQRRTEASRNAADKERAAGGGAGSSEDDAQSRRDEQDDDDKGDSKETRLTLMEEVLLLGLKDREGYTSFWNDCISSGLRGCMLIELALRGRLQLEACGMRRKSLLTRKVICKSDAPTGDVLLDEALKHVKETQPPETVQNWIELLSGETWNPLKLHYQLRNVRERLAKNLVEKGVLTTEKQNFLLFDMTTHPLTNNNIKQRLIKKVQEAVLDKWVNDPHRMDRRLLALIYLAHASRVLENAFAPLLDEQYDLATKRVRQLLDLDPEVECLKANTNEVLWAVVAAFTK
- Tm / melting temperature [3]: 57 °C
- binding of GOLPH3 mutants to LCS [1]: reduced binding; also recorded: weaken or abrogate binding
- % alpha [2]: 38%
- % beta parallel [2]: 0%
- % beta-antiparallel [2]: 0%
- % others [2]: 52%
- % turn [2]: 10%

B5: C108A: GOLPH3 S-acylation mutant C108A, transfected construct (protein, UniProt Q9H4A6 1-298, looked up, variant C108A)
Golgi phosphoprotein 3: MTSLTQRSSGLVQRRTEASRNAADKERAAGGGAGSSEDDAQSRRDEQDDDDKGDSKETRLTLMEEVLLLGLKDREGYTSFWNDCISSGLRGCMLIELALRGRLQLEAAGMRRKSLLTRKVICKSDAPTGDVLLDEALKHVKETQPPETVQNWIELLSGETWNPLKLHYQLRNVRERLAKNLVEKGVLTTEKQNFLLFDMTTHPLTNNNIKQRLIKKVQEAVLDKWVNDPHRMDRRLLALIYLAHASDVLENAFAPLLDEQYDLATKRVRQLLDLDPEVECLKANTNEVLWAVVAAFTK
- Golgi localization of GOLPH3 mutants [4]: increased Golgi localization
- palmitoylation of GOLPH3 mutants [5]: modest effect

B6: D247A/D258A/D262A: GOLPH3 triple mutant D247A/D258A/D262A; recombinant in biophysics, transfected in cells (protein, UniProt Q9H4A6 1-298, looked up, variant D247A D258A D262A)
Golgi phosphoprotein 3: MTSLTQRSSGLVQRRTEASRNAADKERAAGGGAGSSEDDAQSRRDEQDDDDKGDSKETRLTLMEEVLLLGLKDREGYTSFWNDCISSGLRGCMLIELALRGRLQLEACGMRRKSLLTRKVICKSDAPTGDVLLDEALKHVKETQPPETVQNWIELLSGETWNPLKLHYQLRNVRERLAKNLVEKGVLTTEKQNFLLFDMTTHPLTNNNIKQRLIKKVQEAVLDKWVNDPHRMDRRLLALIYLAHASAVLENAFAPLLAEQYALATKRVRQLLDLDPEVECLKANTNEVLWAVVAAFTK
- % alpha [2]: 40%
- % beta parallel [2]: 0%
- % beta-antiparallel [2]: 0%
- % others [2]: 47%
- % turn [2]: 13%

B7: C122A: GOLPH3 S-acylation mutant C122A, transfected construct (protein, UniProt Q9H4A6 1-298, looked up, variant C122A)
Golgi phosphoprotein 3: MTSLTQRSSGLVQRRTEASRNAADKERAAGGGAGSSEDDAQSRRDEQDDDDKGDSKETRLTLMEEVLLLGLKDREGYTSFWNDCISSGLRGCMLIELALRGRLQLEACGMRRKSLLTRKVIAKSDAPTGDVLLDEALKHVKETQPPETVQNWIELLSGETWNPLKLHYQLRNVRERLAKNLVEKGVLTTEKQNFLLFDMTTHPLTNNNIKQRLIKKVQEAVLDKWVNDPHRMDRRLLALIYLAHASDVLENAFAPLLDEQYDLATKRVRQLLDLDPEVECLKANTNEVLWAVVAAFTK
- Golgi localization of GOLPH3 mutants [4]: increased Golgi localization
- palmitoylation of GOLPH3 mutants [5]: modest effect
